Assay results as given in paper PMC3858243.

System: 30S ribosomal subunit (with S1)
Experiment: filter binding
Conditions: no initiator tRNA; Not given in the material for EMSA, SPR and filter binding (buffer with monovalent ions and MgCl2; RNA renatured 90°C 1 min, ice, then 25°C 30 min)

| Substance | Kd [µM] | further results |
| --- | --- | --- |
| sodB mRNA | 1 | – |
| thrSSD mRNA | – | binding signal (fold higher affinity than WT thrS): 5 |
| rpsO mRNA | 1 | – |
| thrS mRNA | 1 | – |
| rpsOSD mRNA | – | binding signal (fold higher affinity than WT rpsO): 5 |
